Experimental data from publication PMC9400301.
Where two headings read alike, the source gives them in different places.

Tests used:
[1] = target: Tva fused with HA tag and the human IgG-Fc fragment (pCAGGS-Tva-HA-Fc); test: co-IP with grey value analysis; settings: parent: est. 1.0; read off a plot
[2] = target: Tva fused with HA tag and the human IgG-Fc fragment (pCAGGS-Tva-HA-Fc)
[3] = target: Tva fused with HA tag and the human IgG-Fc fragment (pCAGGS-Tva-HA-Fc); remark: listed apart in the source
[4] = target: Tva fused with HA tag and the human IgG-Fc fragment (pCAGGS-Tva-HA-Fc); remark: listed apart in the source

“ALV-A gp85 wt (soluble gp85 of ALV-A RSA, pCAGGS-s-gp85-flag) 328_329insP” was tested. Which ratio to parent [1] did it give?
The ratio to parent was 0.71.

ALV-A gp85 I326T (domain or fragment) was tested. Which competitive blocking test: percent GFP-positive DF-1 cells after incubation with the concentrated soluble gp85 and infection with RCASBP(A)-EGFP [2] did it give?
The competitive blocking test: percent GFP-positive DF-1 cells after incubation with the concentrated soluble gp85 and infection with RCASBP(A)-EGFP was 4.5%.

How did the competitive blocking test: percent GFP-positive DF-1 cells after incubation with the concentrated soluble gp85 and infection with RCASBP(A)-EGFP [3] turn out when “recombinant ALV-A gp85 R274V (domain or fragment)” was run?
The competitive blocking test: percent GFP-positive DF-1 cells after incubation with the concentrated soluble gp85 and infection with RCASBP(A)-EGFP was 9.5%.

For “soluble recombinant ALV-A gp85 328_329insP (domain or fragment)”, which competitive blocking test: percent GFP-positive DF-1 cells after incubation with the concentrated soluble gp85 and infection with RCASBP(A)-EGFP [2] is on record?
Its competitive blocking test: percent GFP-positive DF-1 cells after incubation with the concentrated soluble gp85 and infection with RCASBP(A)-EGFP is 12.5%.

Which ratio to parent [1] does the source give for “ALV-A gp85 wt (soluble gp85 of ALV-A RSA, pCAGGS-s-gp85-flag) N269del” here?
Its ratio to parent is 0.91.

Which competitive blocking test: percent GFP-positive DF-1 cells after incubation with the concentrated soluble gp85 and infection with RCASBP(A)-EGFP [2] does the source give for ALV-A gp85 G324P (domain or fragment) here?
Its competitive blocking test: percent GFP-positive DF-1 cells after incubation with the concentrated soluble gp85 and infection with RCASBP(A)-EGFP is 5.5%.

With “soluble recombinant chimeric protein gp85 s8 (ALV-A gp85 with segment s8, residues 269-275, replaced by that of ALV-K) (domain or fragment)” as the substance, how does the competitive blocking test: percent GFP-positive DF-1 cells after incubation with the concentrated soluble gp85 and infection with RCASBP(A)-EGFP [4] read?
The competitive blocking test: percent GFP-positive DF-1 cells after incubation with the concentrated soluble gp85 and infection with RCASBP(A)-EGFP was 11%.

Which ratio to parent [1] does the source give for “ALV-A gp85 wt (soluble gp85 of ALV-A RSA, pCAGGS-s-gp85-flag) A270del” here?
Its ratio to parent is 0.93.
